Assay results: patent US20190361034A1
One block for each substance: values may come before it.

Key:
[1] = target: MHC class II molecules on MHC class II-expressing Raji cells (human); experiment: direct ELISA, plate-immobilised Raji cells; 5% BSA, 10,000 cells; 500 ng/ml
[2] = target: MHC class II molecules on MHC class II-expressing Raji cells (human); experiment: direct ELISA, plate-immobilised Raji cells; 10% FBS, 10,000 cells; 1000 ng/ml
[3] = target: MHC class II molecules on MHC class II-expressing Raji cells (human); experiment: direct ELISA, plate-immobilised Raji cells; 5% BSA, 2,500 cells; 15.625 ng/ml
[4] = target: MHC class II molecules on MHC class II-expressing Raji cells (human); experiment: transfer cell ELISA, Raji cells; 125 ng/ml; plate row C
[5] = target: MHC class II molecules on MHC class II-expressing Raji cells (human); experiment: direct ELISA, plate-immobilised Raji cells; 10% FBS, 5,000 cells; 62.5 ng/ml
[6] = target: MHC class II molecules on MHC class II-expressing Raji cells (human); experiment: direct ELISA, plate-immobilised Raji cells; 5% BSA, 10,000 cells; 15.625 ng/ml
[7] = target: MHC class II molecules on MHC class II-expressing Raji cells (human); experiment: direct ELISA, plate-immobilised Raji cells; 5% BSA, 10,000 cells; 1000 ng/ml
[8] = target: MHC class II molecules on MHC class II-expressing Raji cells (human); experiment: transfer cell ELISA, Raji cells; 3.906 ng/ml; plate row C
[9] = target: MHC class II molecules on MHC class II-expressing Raji cells (human); experiment: direct ELISA, plate-immobilised Raji cells; 5% BSA, 5,000 cells; 31.25 ng/ml
[10] = target: MHC class II molecules on MHC class II-expressing Raji cells (human); experiment: transfer cell ELISA, Raji cells; 125 ng/ml; plate row D
[11] = target: MHC class II molecules on MHC class II-expressing Raji cells (human); experiment: transfer cell ELISA, Raji cells; 1.953 ng/ml; plate row D
[12] = target: MHC class II molecules on MHC class II-expressing Raji cells (human); experiment: direct ELISA, plate-immobilised Raji cells; 10% FBS, 10,000 cells; 31.25 ng/ml
[13] = target: MHC class II molecules on MHC class II-expressing Raji cells (human); experiment: transfer cell ELISA, Raji cells; 31.25 ng/ml; plate row C
[14] = target: MHC class II molecules on MHC class II-expressing Raji cells (human); experiment: direct ELISA, plate-immobilised Raji cells; 10% FBS, 2,500 cells; 62.5 ng/ml
[15] = target: MHC class II molecules on MHC class II-expressing Raji cells (human); experiment: BLI; immobilised sample, Raji cells in solution; pH 7.0 control of FIG. 20
[16] = target: MHC class II molecules on MHC class II-expressing Raji cells (human); experiment: direct ELISA, plate-immobilised Raji cells; 0.5% Casein, 2,500 cells; 1000 ng/ml
[17] = target: MHC class II molecules on MHC class II-expressing Raji cells (human); experiment: BLI; immobilised sample, Raji cells in solution; pH 7.0 control of FIG. 21
[18] = target: MHC class II molecules on MHC class II-expressing Raji cells (human); experiment: BLI; immobilised sample, Raji cells in solution; pH 7.0 control of FIG. 22
[19] = target: MHC class II molecules on MHC class II-expressing Raji cells (human); experiment: direct ELISA, plate-immobilised Raji cells; 0.5% Casein, 10,000 cells; 250 ng/ml
[20] = target: MHC class II molecules on MHC class II-expressing Raji cells (human); experiment: direct ELISA, plate-immobilised Raji cells; 0.5% Casein, 5,000 cells; 250 ng/ml
[21] = target: MHC class II molecules on MHC class II-expressing Raji cells (human); experiment: direct ELISA, plate-immobilised Raji cells; 0.5% Casein, 2,500 cells; 250 ng/ml
[22] = target: MHC class II molecules on MHC class II-expressing Raji cells (human); experiment: direct ELISA, plate-immobilised Raji cells; 3% gelatin, 5,000 cells; 31.25 ng/ml
[23] = target: MHC class II molecules on MHC class II-expressing Raji cells (human); experiment: direct ELISA, plate-immobilised Raji cells; 3% gelatin, 2,500 cells; 62.5 ng/ml
[24] = target: MHC class II molecules on MHC class II-expressing Raji cells (human); experiment: BLI; IMP321 sample at 125% binding potency, Raji cells in solution; relative to reference standard
[25] = target: MHC class II molecules on MHC class II-expressing Raji cells (human); experiment: transfer cell ELISA, Raji cells; 0.977 ng/ml
[26] = target: MHC class II molecules on MHC class II-expressing Raji cells (human); experiment: direct ELISA, plate-immobilised Raji cells; 3% gelatin, 10,000 cells; 1000 ng/ml
[27] = target: MHC class II molecules on MHC class II-expressing Raji cells (human); experiment: direct ELISA, plate-immobilised Raji cells; 3% gelatin, 10,000 cells; 250 ng/ml
[28] = target: MHC class II molecules on MHC class II-expressing Raji cells (human); experiment: direct ELISA, plate-immobilised Raji cells; 3% gelatin, 5,000 cells; 62.5 ng/ml
[29] = target: MHC class II molecules on MHC class II-expressing Raji cells (human); experiment: direct ELISA, plate-immobilised Raji cells; 3% gelatin, 2,500 cells; 1000 ng/ml
[30] = target: MHC class II molecules on MHC class II-expressing Raji cells (human); experiment: direct ELISA, plate-immobilised Raji cells; 3% gelatin, 5,000 cells; 500 ng/ml
[31] = target: MHC class II molecules on MHC class II-expressing Raji cells (human); experiment: BLI; immobilised sample, Raji cells in solution; control of FIG. 19 (37° C., 1 day, no H2O2)
[32] = target: MHC class II molecules on MHC class II-expressing Raji cells (human); experiment: BLI; IMP321 sample diluted from reference standard to 50% binding potency, Raji cells in solution; relative to reference standard
[33] = target: MHC class II molecules on MHC class II-expressing Raji cells (human); experiment: transfer cell ELISA, Raji cells; 1.953 ng/ml

- OD (ELISA signal) [1]: 1.3 OD
- OD (ELISA signal) [2]: 1.34 OD
- OD (ELISA signal) [3]: 0.281 OD
- OD (ELISA signal) [4]: 0.166 OD
- OD (ELISA signal) [5]: 0.28 OD
- OD (ELISA signal) [6]: 0.366 OD
- OD (ELISA signal) [7]: 1.77 OD
- OD (ELISA signal) [8]: 0.012 OD
- OD (ELISA signal) [9]: 0.297 OD
- OD (ELISA signal) [10]: 0.206 OD
- OD (ELISA signal) [11]: 0.01 OD
- OD (ELISA signal) [12]: 0.279 OD
- OD (ELISA signal) [13]: 0.042 OD
- OD (ELISA signal) [14]: 0.329 OD
Substance: IMP321 treated with Peptide-N-Glycosidase F (PNGase F) (Fc fusion)

- Bioactivity (binding) [15]: 126%
- OD (ELISA signal) [16]: 0.112 OD
- Bioactivity (binding) [17]: 95%
- Bioactivity (binding) [18]: 94%
- OD (ELISA signal) [19]: 0.241 OD
- OD (ELISA signal) [20]: 0.255 OD
- OD (ELISA signal) [21]: 0.231 OD
- OD (ELISA signal) [22]: 0.359 OD
- OD (ELISA signal) [23]: 0.399 OD
- Potency determined by BLI assay [24]: 135%
- OD (ELISA signal) [25]: 0.018 OD
- OD (ELISA signal) [26]: 1.97 OD
- OD (ELISA signal) [27]: 1.39 OD
- OD (ELISA signal) [28]: 0.464 OD
- OD (ELISA signal) [29]: 2.6 OD
- OD (ELISA signal) [30]: 1.88 OD
- Bioactivity (binding) [31]: 85%
- Potency determined by BLI assay [32]: 55%
- OD (ELISA signal) [33]: 0.026 OD
Substance: IMP321, recombinant soluble human LAG-3Ig fusion protein (Fc fusion)
